This note sets out measurements from US20160312212A1, “COW ANTIBODY SCAFFOLD POLYPEPTIDE METHOD AND COMPOSITION” (Roche Sequencing Solutions, Inc., priority 2015, published 2016).

The assay addresses Biotinylated Human Thrombin (human) (UniProt P00734). In words: mRNA display selection on biotinylated human thrombin, round 2; NGS read frequency.

In turn, “mRNA-displayed cow antibody scaffold polypeptide with cassette RTKIK*NGL* (designed binder)” had a counts of 86 counts and a percentage (%) of 0.0052%.
